How the values were obtained:
[1] = target: T1, Core_NIII-es_KEEE; assay: two-hybrid library CCmax; details: mean of both orientations;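 also: natural log of median RNA to DNA barcode read ratio; higher means stronger binding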
T1 chain: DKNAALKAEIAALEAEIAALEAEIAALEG

[2] = target: T2, O14-bA; assay: two-hybrid library CCNG1;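 also: natural log of median RNA to DNA barcode read ratio; higher means stronger binding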
T2 chain: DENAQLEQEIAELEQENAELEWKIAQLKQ

[3] = target: T3, O16-bA; assay: two-hybrid library CCNG1;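 also: natural log of median RNA to DNA barcode read ratio; higher means stronger binding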
T3 chain: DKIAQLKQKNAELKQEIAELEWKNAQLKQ

[4] = target: T4, O4-bA; assay: two-hybrid library CCNG1;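 also: natural log of median RNA to DNA barcode read ratio; higher means stronger binding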
T4 chain: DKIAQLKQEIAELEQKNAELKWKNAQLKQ

[5] = target: T5, O12-bA; assay: two-hybrid library CCNG1;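 also: natural log of median RNA to DNA barcode read ratio; higher means stronger binding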
T5 chain: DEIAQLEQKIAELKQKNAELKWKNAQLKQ

[6] = target: T6, O11-bA; assay: two-hybrid library CCNG1;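 also: natural log of median RNA to DNA barcode read ratio; higher means stronger binding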
T6 chain: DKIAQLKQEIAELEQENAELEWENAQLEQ

[7] = target: T7, O15-bA; assay: two-hybrid library CCNG1
T7 chain: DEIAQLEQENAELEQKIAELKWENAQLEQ

[8] = target: T8, O5-bA; assay: two-hybrid library CCNG1
T8 chain: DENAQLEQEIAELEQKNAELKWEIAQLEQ

[9] = target: T9, O9-bA; assay: two-hybrid library CCNG1
T9 chain: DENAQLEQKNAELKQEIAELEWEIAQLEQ

[10] = target: T10, O2-bA; assay: two-hybrid library CCNG1
T10 chain: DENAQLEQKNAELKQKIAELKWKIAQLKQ

[11] = target: T11, O8-bA; assay: two-hybrid library CCNG1
T11 chain: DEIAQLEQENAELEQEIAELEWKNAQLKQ

[12] = target: T12, O13-bA; assay: two-hybrid library CCNG1
T12 chain: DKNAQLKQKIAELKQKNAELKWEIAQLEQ

[13] = target: T13, O10-bA; assay: two-hybrid library CCNG1
T13 chain: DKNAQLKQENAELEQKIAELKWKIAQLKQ

[14] = target: T14, O7-bA; assay: two-hybrid library CCNG1
T14 chain: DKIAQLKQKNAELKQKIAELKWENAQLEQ

[15] = target: T15, O3-bA; assay: two-hybrid library CCNG1
T15 chain: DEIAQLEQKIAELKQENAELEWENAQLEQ

[16] = target: T16, O6-bA; assay: two-hybrid library CCNG1
T16 chain: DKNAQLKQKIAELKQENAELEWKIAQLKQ

[17] = target: T17, O1-bA; assay: two-hybrid library CCNG1
T17 chain: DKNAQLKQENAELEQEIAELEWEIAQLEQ

[18] = target: T18, 4H470-bN; assay: two-hybrid library CCNG1
T18 chain: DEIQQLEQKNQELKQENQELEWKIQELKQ

[19] = target: T19, 4H363-bN; assay: two-hybrid library CCNG1
T19 chain: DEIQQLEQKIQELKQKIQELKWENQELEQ

[20] = target: T20, 4H1072-bN; assay: two-hybrid library CCNG1
T20 chain: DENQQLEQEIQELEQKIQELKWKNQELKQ

[21] = target: T21, 4H2619-bN; assay: two-hybrid library CCNG1
T21 chain: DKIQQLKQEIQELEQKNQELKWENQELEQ

[22] = target: T22, 4H3961-bN; assay: two-hybrid library CCNG1; details: mean of both orientations
T22 chain: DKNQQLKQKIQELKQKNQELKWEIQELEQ

[23] = target: T23, 4H1046-bN; assay: two-hybrid library CCNG1; details: mean of both orientations
T23 chain: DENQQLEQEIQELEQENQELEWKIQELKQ

[24] = target: T24, 4H2745-bN; assay: two-hybrid library CCNG1
T24 chain: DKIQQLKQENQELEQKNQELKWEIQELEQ

[25] = target: T25, 4H344-bN; assay: two-hybrid library CCNG1
T25 chain: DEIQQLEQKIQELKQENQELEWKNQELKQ

[26] = target: T26, 4H2568-bN; assay: two-hybrid library CCNG1
T26 chain: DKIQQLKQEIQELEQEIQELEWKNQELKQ

[27] = target: T27, 4H3907-bN; assay: two-hybrid library CCNG1
T27 chain: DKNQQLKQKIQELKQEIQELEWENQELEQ

[28] = target: T28, 4H1845-bN; assay: two-hybrid library CCNG1
T28 chain: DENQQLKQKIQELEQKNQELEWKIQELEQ

[29] = target: T29, 4H2667-bN; assay: two-hybrid library CCNG1
T29 chain: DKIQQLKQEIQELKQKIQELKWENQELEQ

[30] = target: T30, 4H953-bN; assay: two-hybrid library CCNG1
T30 chain: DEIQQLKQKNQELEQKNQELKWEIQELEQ

[31] = target: T31, 4H4001-bN; assay: two-hybrid library CCNG1
T31 chain: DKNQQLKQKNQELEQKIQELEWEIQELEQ

[32] = target: T32, P3A-bN; assay: two-hybrid library CCNG1
T32 chain: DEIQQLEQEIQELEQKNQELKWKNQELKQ

[33] = target: T33, 4H2729-bN; assay: two-hybrid library CCNG1
T33 chain: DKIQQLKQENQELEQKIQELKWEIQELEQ

[34] = target: T34, 4H908-bN; assay: two-hybrid library CCNG1
T34 chain: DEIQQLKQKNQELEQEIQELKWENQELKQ

[35] = target: T35, 4H72-bN; assay: two-hybrid library CCNG1
T35 chain: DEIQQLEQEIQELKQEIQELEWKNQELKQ

[36] = target: T36, 4H2442-bN; assay: two-hybrid library CCNG1
T36 chain: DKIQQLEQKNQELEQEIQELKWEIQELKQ

[37] = target: T37, 4H2576-bN; assay: two-hybrid library CCNG1
T37 chain: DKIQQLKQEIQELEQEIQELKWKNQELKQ

[38] = target: T38, 4H3855-bN; assay: two-hybrid library CCNG1
T38 chain: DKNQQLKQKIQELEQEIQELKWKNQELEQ

[39] = target: T39, 4H1828-bN; assay: two-hybrid library CCNG1
T39 chain: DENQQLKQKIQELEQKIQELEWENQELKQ

[40] = target: T40, 4H717-bN; assay: two-hybrid library CCNG1
T40 chain: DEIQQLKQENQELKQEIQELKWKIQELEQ

[41] = target: T41, 4H754-bN; assay: two-hybrid library CCNG1
T41 chain: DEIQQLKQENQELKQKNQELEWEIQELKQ

[42] = target: T42, 4H3185-bN; assay: two-hybrid library CCNG1
T42 chain: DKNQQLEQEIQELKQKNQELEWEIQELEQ

[43] = target: T43, 4H607-bN; assay: two-hybrid library CCNG1
T43 chain: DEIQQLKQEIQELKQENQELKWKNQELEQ

[44] = target: T44, 4H1257-bN; assay: two-hybrid library CCNG1
T44 chain: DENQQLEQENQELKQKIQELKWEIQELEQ

[45] = target: T45, 4H1446-bN; assay: two-hybrid library CCNG1
T45 chain: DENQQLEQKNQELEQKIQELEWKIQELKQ

[46] = target: T46, 4H331-bN; assay: two-hybrid library CCNG1
T46 chain: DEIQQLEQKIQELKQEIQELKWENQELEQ

[47] = target: T47, 4H568-bN; assay: two-hybrid library CCNG1
T47 chain: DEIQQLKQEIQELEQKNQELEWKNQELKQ

[48] = target: T48, 4H2618-bN; assay: two-hybrid library CCNG1
T48 chain: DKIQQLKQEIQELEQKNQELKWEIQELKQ

[49] = target: T49, 4H3782-bN; assay: two-hybrid library CCNG1
T49 chain: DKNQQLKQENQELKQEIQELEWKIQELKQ

[50] = target: T50, 4H967-bN; assay: two-hybrid library CCNG1
T50 chain: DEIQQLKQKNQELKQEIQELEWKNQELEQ

[51] = target: T51, 4H3354-bN; assay: two-hybrid library CCNG1
T51 chain: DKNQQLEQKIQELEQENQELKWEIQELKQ

[52] = target: T52, 4H338-bN; assay: two-hybrid library CCNG1
T52 chain: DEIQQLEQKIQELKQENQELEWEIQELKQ

[53] = target: T53, 4H3427-bN; assay: two-hybrid library CCNG1
T53 chain: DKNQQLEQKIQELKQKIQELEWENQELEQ

[54] = target: T54, 4H454-bN; assay: two-hybrid library CCNG1
T54 chain: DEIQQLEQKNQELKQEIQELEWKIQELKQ

[55] = target: T55, 4H883-bN; assay: two-hybrid library CCNG1
T55 chain: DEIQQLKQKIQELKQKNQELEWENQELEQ

[56] = target: T56, 4H918-bN; assay: two-hybrid library CCNG1
T56 chain: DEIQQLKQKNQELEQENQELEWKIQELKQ

[57] = target: T57, 4H3112-bN; assay: two-hybrid library CCNG1
T57 chain: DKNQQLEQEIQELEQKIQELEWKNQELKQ

[58] = target: T58, 4H797-bN; assay: two-hybrid library CCNG1
T58 chain: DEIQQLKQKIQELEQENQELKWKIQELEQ

[59] = target: T59, 4H687-bN; assay: two-hybrid library CCNG1
T59 chain: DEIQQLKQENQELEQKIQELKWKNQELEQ

[60] = target: T60, Core_NINN-es_KKEK; assay: two-hybrid library CCmax; details: mean of both orientations
T60 chain: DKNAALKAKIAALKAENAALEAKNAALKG

**Q.** For DENAALEAKIAALKAKIAALKAKIAALKG [Core_NIII-es_EKKK], which interaction score [1] is on record?
**A.** 2.17

**Q.** For DKNAQLKQENAELEQEIAELEWEIAQLEQ [O1-bA], which interaction score [2] is on record?
**A.** -1.02

**Q.** And the interaction score [3]?
**A.** -0.581

**Q.** And the interaction score [4]?
**A.** -1.53

**Q.** What about the interaction score [5] of the same binder?
**A.** -0.825

**Q.** What about the interaction score [6] of the same binder?
**A.** -1.05

**Q.** And the interaction score [7]?
**A.** -1.03

**Q.** What about the interaction score [8] of the same binder?
**A.** -1.23

**Q.** What about the interaction score [9] of the same binder?
**A.** -0.823

**Q.** What about the interaction score [10] of the same binder?
**A.** 2.31

**Q.** And the interaction score [11]?
**A.** -1.59

**Q.** What about the interaction score [12] of the same binder?
**A.** 0.415

**Q.** And the interaction score [13]?
**A.** 1.21

**Q.** And the interaction score [14]?
**A.** -0.0848

**Q.** What about the interaction score [15] of the same binder?
**A.** -1.08

**Q.** And the interaction score [16]?
**A.** -0.599

**Q.** And the interaction score [17]?
**A.** -0.889

**Q.** What does the source list for DENQQLEQEIQELEQENQELEWKIQELKQ [4H1046-bN]?
**A.** interaction score [18]: 0.0233; interaction score [19]: -0.252; interaction score [20]: -0.367; interaction score [21]: -1.35; interaction score [22]: 1.37; interaction score [23]: -0.38; interaction score [24]: -0.112; interaction score [25]: 0.965; interaction score [26]: 0.836; interaction score [27]: -0.5

**Q.** DENQQLEQENQELKQKIQELKWEIQELEQ [4H1257-bN] was tested. Which interaction score [28] did it give?
**A.** -0.503

**Q.** And the interaction score [29]?
**A.** -1.35

**Q.** What about the interaction score [30] of the same binder?
**A.** -0.733

**Q.** And the interaction score [31]?
**A.** -1.89

**Q.** And the interaction score [32]?
**A.** -1.36

**Q.** What about the interaction score [33] of the same binder?
**A.** -0.506

**Q.** And the interaction score [34]?
**A.** -1.39

**Q.** And the interaction score [35]?
**A.** -1.99

**Q.** What about the interaction score [36] of the same binder?
**A.** -1.13

**Q.** What about the interaction score [37] of the same binder?
**A.** -0.613

**Q.** What about the interaction score [38] of the same binder?
**A.** -0.77

**Q.** And the interaction score [39]?
**A.** -0.561

**Q.** And the interaction score [40]?
**A.** -1.05

**Q.** And the interaction score [41]?
**A.** -1.46

**Q.** And the interaction score [42]?
**A.** -1.45

**Q.** And the interaction score [43]?
**A.** -0.95

**Q.** And the interaction score [44]?
**A.** -1.67

**Q.** What about the interaction score [45] of the same binder?
**A.** -0.533

**Q.** What about the interaction score [46] of the same binder?
**A.** -1.48

**Q.** What about the interaction score [47] of the same binder?
**A.** -1.28

**Q.** And the interaction score [48]?
**A.** -0.173

**Q.** What about the interaction score [49] of the same binder?
**A.** 1.9

**Q.** What about the interaction score [50] of the same binder?
**A.** -0.47

**Q.** And the interaction score [51]?
**A.** -1.08

**Q.** And the interaction score [52]?
**A.** -0.857

**Q.** And the interaction score [53]?
**A.** -0.768

**Q.** And the interaction score [54]?
**A.** 0.889

**Q.** And the interaction score [55]?
**A.** -1.31

**Q.** What about the interaction score [56] of the same binder?
**A.** -1.21

**Q.** And the interaction score [57]?
**A.** -0.702

**Q.** And the interaction score [58]?
**A.** -0.946

**Q.** What about the interaction score [59] of the same binder?
**A.** -1.24

**Q.** With DENAALEAEIAALEAKNAALKAENAALEG [Core_NINN-es_EEKE] as the binder, how does the interaction score [60] read?
**A.** 1.78

Reference: article PMC10397247
